Numbering of substitutions follows the chain as printed. In names and notes the source's numbering stands.
B1: TsAI (Thermococcus sibiricus MM 739) (protein)
chain: MKKLLIIGTGGTIASAKTEQGYKSVLKIDEILKLAKIKLENGYKIDSTNIMNIDSTLIHPEDWEIIAKEVFKALDDYDGIIITHGTDTLAYTASMLSFMIKNPNKPIVLTGSMLPITENGSDAPRNIRTAIKFAMEDVAGVFVAFMDKIMLGCRTSKVRTLGLNAFMSINYPDVAYVKGEKILYNIPKEKFQPNGSPELDTKYEPRVVVLRVTPGLGGEIIDAVLDAGYKGIVLEGYGAGGLPYRKSNLLSKIKEITPKIPVIMTTQALYDGVDMRKYEVGRKALETGIIPAKDMTKEATITKLMWALGHTKDVEKIREIMHTNYVNEIKS
notes: full-length, 331 residues, homodimer
B2: TsAI (Thermococcus sibiricus MM 739; D54G/T56Q) (protein)
chain: B1 chain with D54G, T56Q
notes: as for B1

Experiments:
Experiment in all cases: direct Nesslerization (ammonia release)
TsAI = target: T1, TsAI (Thermococcus sibiricus, UniProt C6A532, D54G/T56Q); format: biochemical; details: 90 °C, 0.05 M Tris-HCl pH 9.0; 0.25–20 mM substrate
T1 construct: gene TSIB_1676; full-length, 331 residues, homodimer
T1 sequence (C6A532 entry or part of it D54G/T56Q): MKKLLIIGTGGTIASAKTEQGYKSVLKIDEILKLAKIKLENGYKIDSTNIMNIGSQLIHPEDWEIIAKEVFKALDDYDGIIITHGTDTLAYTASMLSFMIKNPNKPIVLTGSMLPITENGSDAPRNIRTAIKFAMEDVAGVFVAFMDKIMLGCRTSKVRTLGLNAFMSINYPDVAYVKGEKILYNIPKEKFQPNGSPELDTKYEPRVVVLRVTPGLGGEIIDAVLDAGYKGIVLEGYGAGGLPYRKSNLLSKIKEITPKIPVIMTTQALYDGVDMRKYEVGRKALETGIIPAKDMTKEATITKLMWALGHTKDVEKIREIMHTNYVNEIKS
Text: (§1) direct Nesslerization (ammonia release) on TsAI

[1] = substrate: NC(=O)CC[C@@H](N)C(=O)O; format: biochemical, Thermococcus sibiricus; details: 90 °C, 0.05 M Tris-HCl pH 9.0, 0.25–40 mM substrate
Text: as §1

[2] = substrate: NC(=O)C[C@H](N)C(=O)O; format: biochemical, Thermococcus sibiricus; details: 90 °C, 0.05 M Tris-HCl pH 9.0, 0.25–20 mM substrate
Text: as §1

[3] = substrate: NC(=O)C[C@@H](N)C(=O)O; format: biochemical, Thermococcus sibiricus; details: 90 °C, 0.05 M Tris-HCl pH 9.0, 0.25–30 mM substrate
Text: as §1

[4] = substrate: NC(=O)CC[C@H](N)C(=O)O; format: biochemical, Thermococcus sibiricus; details: 90 °C, 0.05 M Tris-HCl pH 9.0, 0.25–30 mM substrate
Text: as §1

| Molecule | Km (TsAI) | Km [1] | Vmax [1] | Km [2] | Vmax [2] | Km [3] | Vmax [3] | Km [4] | Vmax [4] |
| --- | --- | --- | --- | --- | --- | --- | --- | --- | --- |
| NC(=O)C[C@H](N)C(=O)O [L-asparagine] | 6.03 ± 0.15 mM |  |  |  |  |  |  |  |  |
| B1 |  | 13.86 ± 0.86 mM | 180 µM/min | 3.10 ± 0.15 mM | 4020 µM/min | 8.63 ± 0.48 mM | 660 µM/min | 11.09 ± 0.25 mM | 280 µM/min |
| B2 |  | 14.40 ± 1.60 mM | 180 µM/min |  |  | 9.18 ± 0.86 mM | 590 µM/min | 11.41 ± 0.27 mM | 250 µM/min |
